{
  "source": "patent US20090253131A1",
  "about": "“HYBRID FUSION REPORTER AND USES THEREOF” (Promega Corporation, priority 2007, published 2009)",
  "test_in_all_cases": "cell-based or functional assay",
  "key": {"[1]": {"biological_target": "FKBP-hRL (112-311) (Renilla) (UniProt P62942)", "sequence (P62942 other isoform, or with tags, fused parts or gaps)": "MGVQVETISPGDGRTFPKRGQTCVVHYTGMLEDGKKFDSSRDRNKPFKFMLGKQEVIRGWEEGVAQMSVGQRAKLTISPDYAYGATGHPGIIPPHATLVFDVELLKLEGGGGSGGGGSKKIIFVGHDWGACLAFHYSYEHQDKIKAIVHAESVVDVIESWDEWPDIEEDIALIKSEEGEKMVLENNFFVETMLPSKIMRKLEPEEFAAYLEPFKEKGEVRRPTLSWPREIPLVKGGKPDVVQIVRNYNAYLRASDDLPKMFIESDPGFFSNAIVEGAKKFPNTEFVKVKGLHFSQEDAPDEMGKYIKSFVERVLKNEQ"}, "[2]": {"biological_target": "FKBP-hRL (112-311) (Renilla) (UniProt P62942)", "remark": "listed apart in the source"}, "[3]": {"biological_target": "hRL (112-311)-FKBP (Renilla) (UniProt P27652)", "sequence (P27652 other isoform, or with tags, fused parts or gaps)": "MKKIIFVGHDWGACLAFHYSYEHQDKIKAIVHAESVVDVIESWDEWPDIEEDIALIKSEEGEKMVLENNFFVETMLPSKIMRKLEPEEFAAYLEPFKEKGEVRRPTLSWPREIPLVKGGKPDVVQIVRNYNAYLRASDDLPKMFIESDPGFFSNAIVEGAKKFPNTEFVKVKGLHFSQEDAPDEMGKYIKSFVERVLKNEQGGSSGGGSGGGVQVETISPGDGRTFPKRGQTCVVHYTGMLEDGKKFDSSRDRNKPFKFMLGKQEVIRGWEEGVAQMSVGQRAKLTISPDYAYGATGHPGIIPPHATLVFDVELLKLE"}, "[4]": {"biological_target": "hRL (112-311)-FKBP (Renilla) (UniProt P27652)", "remark": "listed apart in the source"}, "[5]": {"biological_target": "hRL (92-311)-FKBP (Renilla) (UniProt P27652)", "sequence (P27652 other isoform, or with tags, fused parts or gaps)": "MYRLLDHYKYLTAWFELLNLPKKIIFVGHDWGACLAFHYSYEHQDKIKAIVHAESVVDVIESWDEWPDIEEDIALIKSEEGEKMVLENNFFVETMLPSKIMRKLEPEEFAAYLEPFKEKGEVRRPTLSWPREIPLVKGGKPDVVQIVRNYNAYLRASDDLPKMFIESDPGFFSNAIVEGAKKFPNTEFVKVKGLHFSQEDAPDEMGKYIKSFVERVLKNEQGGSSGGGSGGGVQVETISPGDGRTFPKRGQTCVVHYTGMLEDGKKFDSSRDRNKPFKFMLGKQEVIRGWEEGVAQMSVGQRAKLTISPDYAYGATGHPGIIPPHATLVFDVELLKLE"}, "[6]": {"biological_target": "hRL (92-311)-FKBP (Renilla) (UniProt P27652)", "remark": "listed apart in the source"}, "[7]": {"biological_target": "Rluc8 (92-311)-FKBP (Renilla) (UniProt P27652)", "sequence (P27652 other isoform, or with tags, fused parts or gaps)": "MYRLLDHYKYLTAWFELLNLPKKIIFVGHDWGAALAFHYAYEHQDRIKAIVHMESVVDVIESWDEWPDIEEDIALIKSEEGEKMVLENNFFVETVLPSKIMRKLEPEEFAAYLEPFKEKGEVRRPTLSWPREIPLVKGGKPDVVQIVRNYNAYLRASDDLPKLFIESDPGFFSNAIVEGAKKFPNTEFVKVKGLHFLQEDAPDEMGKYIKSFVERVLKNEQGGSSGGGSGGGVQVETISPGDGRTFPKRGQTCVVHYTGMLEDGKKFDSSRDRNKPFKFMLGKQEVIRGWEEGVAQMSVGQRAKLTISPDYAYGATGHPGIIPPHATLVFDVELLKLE"}, "[8]": {"biological_target": "FKBP-hRL (92-311) (Renilla) (UniProt P62942)", "sequence (P62942 other isoform, or with tags, fused parts or gaps)": "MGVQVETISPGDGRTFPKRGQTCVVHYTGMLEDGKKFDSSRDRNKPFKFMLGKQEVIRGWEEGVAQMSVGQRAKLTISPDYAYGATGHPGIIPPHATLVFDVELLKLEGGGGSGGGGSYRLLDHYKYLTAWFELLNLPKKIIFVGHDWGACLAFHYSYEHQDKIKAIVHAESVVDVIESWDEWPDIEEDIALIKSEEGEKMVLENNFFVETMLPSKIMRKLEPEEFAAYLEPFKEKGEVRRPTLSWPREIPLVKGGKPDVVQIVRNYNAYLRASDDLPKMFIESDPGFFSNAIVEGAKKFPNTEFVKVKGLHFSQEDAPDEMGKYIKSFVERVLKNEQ"}, "[9]": {"biological_target": "FKBP-hRL (92-311) (Renilla) (UniProt P62942)", "remark": "listed apart in the source"}, "[10]": {"biological_target": "Rluc8 (112-311)-FKBP (Renilla) (UniProt P27652)", "sequence (P27652 other isoform, or with tags, fused parts or gaps)": "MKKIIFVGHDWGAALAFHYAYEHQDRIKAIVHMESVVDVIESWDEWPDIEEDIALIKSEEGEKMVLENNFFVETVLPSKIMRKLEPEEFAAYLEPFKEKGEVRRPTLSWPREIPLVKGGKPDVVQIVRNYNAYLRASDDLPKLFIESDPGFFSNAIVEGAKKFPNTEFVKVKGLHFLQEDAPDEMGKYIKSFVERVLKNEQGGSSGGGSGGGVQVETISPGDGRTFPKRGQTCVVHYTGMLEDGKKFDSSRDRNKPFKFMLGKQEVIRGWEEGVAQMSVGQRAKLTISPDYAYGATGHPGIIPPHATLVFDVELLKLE"}},
  "note": "Read-outs that look alike come from different tables or passages of the source.",
  "data": [
    {"substance": "hRL (1-111)-FRB (from UniProt P27652 1-111; P42345 2021-2113)", "values": [
      {"measurement": "Renilla luciferase activity, +rapamycin against no rapamycin", "setting": "[1]", "value": 114, "unit": "fold"},
      {"measurement": "Renilla luciferase activity, +rapamycin against no rapamycin", "setting": "[2]", "value": 81, "unit": "fold"}
    ]},
    {"substance": "FRB-hRL (1-111) (from UniProt P42345 2021-2113; P27652 1-111)", "values": [
      {"measurement": "Renilla luciferase activity, +rapamycin against no rapamycin", "setting": "[3]", "value": 51, "unit": "fold"},
      {"measurement": "Renilla luciferase activity, +rapamycin against no rapamycin", "setting": "[4]", "value": 46, "unit": "fold"},
      {"measurement": "Renilla luciferase activity, +rapamycin against no rapamycin", "setting": "[2]", "value": 5.3, "unit": "fold"}
    ]},
    {"substance": "FRB-hRL (1-91) (from UniProt P42345 2021-2113; P27652 1-91)", "values": [
      {"measurement": "Renilla luciferase activity, +rapamycin against no rapamycin", "setting": "[5]", "value": 10.4, "unit": "fold"},
      {"measurement": "Renilla luciferase activity, +rapamycin against no rapamycin", "setting": "[6]", "value": 134, "unit": "fold"}
    ]},
    {"substance": "Rluc8 (1-91)-FRB (from UniProt P27652 1-91; P42345 2021-2113)", "values": [
      {"measurement": "Renilla luciferase activity, +rapamycin against no rapamycin", "setting": "[7]", "value": 4, "unit": "fold"}
    ]},
    {"substance": "hRL (1-91)-FRB (from UniProt P27652 1-91; P42345 2021-2113)", "values": [
      {"measurement": "Renilla luciferase activity, +rapamycin against no rapamycin", "setting": "[8]", "value": 13.5, "unit": "fold"},
      {"measurement": "Renilla luciferase activity, +rapamycin against no rapamycin", "setting": "[9]", "value": 8.6, "unit": "fold"}
    ]},
    {"substance": "Rluc8 (1-111)-FRB (from UniProt P27652 1-111; P42345 2021-2113)", "values": [
      {"measurement": "Renilla luciferase activity, +rapamycin against no rapamycin", "setting": "[10]", "value": 17, "unit": "fold"}
    ]}
  ]
}
